Measured values from patent US7407939B2, “Protein kinase inhibitors comprising ATP mimetics conjugated to peptides or peptidomimetics” (CureGenics Ltd., priority 2001, dated 2008).
Like-named read-outs stand apart in the source and are kept apart here. *1 amine or outer side, *2 acyl side, *3 side chain or, on linkers, in order; H or OH if unused. Where a SMILES comes first, the peptide text is derived from it. Where no end group is shown, it is not given here. Side-chain parts run from the residue outwards. [ ]: non-standard residue; d: D form. The star is where a group is joined. X1 = 5‑aminoethylsulfonamide isoquinoline, O=S(=O)(NCCN*)c1cccc2cnccc12; Isoquinoline5sulfonyl = O=S(=O)(c1cccc2cnccc12)*; X3 = O=C(OC[C@H](Cc1ccccc1)N[*:1])[*:2]; Ethylenediamine = C(CN[*:2])N[*:1]; hLeu = CC(C)CC[C@H](N)C(=O)O; GltNH2 = not defined here; Nle = CCCC[C@H](N)C(=O)O; Orn = NCCC[C@H](N)C(=O)O; Dab = NCC[C@H](N)C(=O)O; Nva = CCC[C@H](N)C(=O)O; Abu = CC[C@H](N)C(=O)O; Dap = NC[C@H](N)C(=O)O; GlyNH2 = aminoglycine; βAla = NCCC(=O)O

Molecular target: T1, PKB (Homo sapiens, UniProt P31749)
T1 construct: His; HA; made in house
T1 sequence (P31749 whole entry, species assumed): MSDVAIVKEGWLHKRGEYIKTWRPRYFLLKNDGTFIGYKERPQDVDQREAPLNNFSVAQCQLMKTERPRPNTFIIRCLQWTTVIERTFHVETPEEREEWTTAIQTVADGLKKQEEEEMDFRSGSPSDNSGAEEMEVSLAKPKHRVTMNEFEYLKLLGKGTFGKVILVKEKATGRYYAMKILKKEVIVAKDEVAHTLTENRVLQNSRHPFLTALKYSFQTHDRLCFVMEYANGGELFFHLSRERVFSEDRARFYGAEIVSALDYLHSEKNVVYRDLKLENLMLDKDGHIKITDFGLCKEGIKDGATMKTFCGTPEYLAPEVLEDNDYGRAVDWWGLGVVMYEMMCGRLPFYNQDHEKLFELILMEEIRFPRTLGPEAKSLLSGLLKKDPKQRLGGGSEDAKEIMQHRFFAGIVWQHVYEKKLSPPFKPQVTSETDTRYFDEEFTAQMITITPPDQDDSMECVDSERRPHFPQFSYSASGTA
Test: PKB in vitro kinase activity assay (soluble His-HA-PKB / SPA bead screening)
Format: biochemical
Set-up: % Inhibition PKB I / % Inhibition PKB II: concentration or dose not given beside the values
Details: for % Inhibition PKB I / % Inhibition PKB II: plate screening, peptide moiety alone; for PKB-kinase (spa) Assay 1, % inhibition of kinase activity / PKB-kinase (spa) Assay 2, % inhibition of kinase activity: 1 μM compound concentration

[1] = chimeric PTR compounds (peptide conjugated to isoquinoline small molecule), read-out: PKB IC50
[2] = Table 3, linear 7-mer peptides, read-out: Activity PKB

Description: The enzyme activity measurement is performed as described in the assay for PKA.
Kinase reaction was carried out in final volume of 50 μl. […] The kinase reaction was started by adding 10 μl of 2 μM cold ATP and 0.25 μCi of [γ^33P]-ATP in kinase buffer. The plates were incubated at 27° C. for 1 hr. At the end of the incubation the reaction was stopped by 200 μl of PBS containing 0.1% Triton X-100, 5 mM EDTA, 1 mM ATP and 0.3 mg/ml of Streptavidin-coated SPA bead (Amersham Pharmacia Biotech). After 15 min incubation at room temperature, the reaction mixtures were filtered using Packard GF/B 96-well plates. The plates were washed twice with 2M NaCl and 1% orthophosphoric acid followed by ethanol wash and 1 h air-dry. The radioactivity was counted using microplate counter Packard Top Count

Compound | PKB-kinase (spa) Assay 1, % inhibition of kinase activity [%] | PKB-kinase (spa) Assay 2, % inhibition of kinase activity [%] | further results
60006-7B (RPR[Nva][GlyNH2][Abu][hLeu]) [Compound 60006-7B] |  |  | % Inhibition PKB I: 53%; % Inhibition PKB II: 47%
60020-20: Arg-Pro-Arg-Abu-Glu(5-aminoethylsulfonamide isoquinoline)-Orn-Hol (RPR[Abu]E(X1)[Orn][hLeu]) | 11 | 15 | 
RPR[Orn]AT[Orn] [AR 60003-96] |  |  | Activity PKB (Table 3, linear 7-mer peptides): Not active
C[C@@H](O)[C@H](NC(=O)[C@H](CCCNC(=N)N)NC(=O)[C@@H]1CCCN1C(=O)[C@@H](N)CCCNC(=N)N)C(=O)N[C@@H](CO)C(=O)N[C@@H](CCC(=O)NCCNS(=O)(=O)c1cccc2cnccc12)C(=O)N[C@@H](Cc1ccccc1)C(N)=O [compound 6014] (H-RPRTSE([Ethylenediamine-Isoquinoline5sulfonyl])F-NH2) |  |  | IC50 [1]: 25 µM
60020-54: Arg-Pro-Arg-Abu-Glu(Gly-5-aminoethylsulfonamide isoquinoline)-Ala-Hol (RPR[Abu]E([Gly-X1])A[hLeu]) | 34 | 45 | 
60020-86: Arg-Pro-Arg-Abu-Glu(bAla-5-aminoethylsulfonamide isoquinoline)-Ala-Hol (RPR[Abu]E([βAla-X1])A[hLeu]) | −55 | −5 | 
60020-28: Arg-Pro-Arg-Nle-Glu(5-aminoethylsulfonamide isoquinoline)-Orn-Hol (RPR[Nle]E(X1)[Orn][hLeu]) | 27 | 31 | 
60020-74: Arg-Pro-Arg-Orn-Glu(bAla-5-aminoethylsulfonamide isoquinoline)-Dab-Hol (RPR[Orn]E([βAla-X1])[Dab][hLeu]) | 33 | 41 | 
60020-90: Arg-Pro-Arg-Nle-Glu(bAla-5-aminoethylsulfonamide isoquinoline)-Dab-Hol (RPR[Nle]E([βAla-X1])[Dab][hLeu]) | 19 | 27 | 
60020-48: Arg-Pro-Arg-Orn-Glu(Gly-5-aminoethylsulfonamide isoquinoline)-Nva-Hol (RPR[Orn]E([Gly-X1])[Nva][hLeu]) | 10 | 22 | 
60020-16: Arg-Pro-Arg-Orn-Glu(5-aminoethylsulfonamide isoquinoline)-Nva-Hol (RPR[Orn]E(X1)[Nva][hLeu]) | 5 | 37 | 
60020-24: Arg-Pro-Arg-Abu-Glu(5-aminoethylsulfonamide isoquinoline)-Nva-Hol (RPR[Abu]E(X1)[Nva][hLeu]) | −17 | −12 | 
N=C(N)NCCC[C@H](NC(=O)[C@@H]1CCCN1C(=O)[C@@H](N)CCCNC(=N)N)C(=O)N[C@@H](CCCN)C(=O)N[C@@H](CO)C(=O)N[C@@H](CO)C(=O)N[C@@H](Cc1ccccc1)C(N)=O [AR 60003-52, Arg-Pro-Arg-Orn-Ser-Ser-Phe] (H-RPR[Orn]SSF-NH2; N-terminus and C-terminus assumed) |  |  | IC50 [2]: 2.5 µM
60020-30: Arg-Pro-Arg-Nle-Glu(5-aminoethylsulfonamide isoquinoline)-Ala-Hol (RPR[Nle]E(X1)A[hLeu]) | 14 | 38 | 
60020-47: Arg-Pro-Arg-Orn-Glu(Gly-5-aminoethylsulfonamide isoquinoline)-Nva-Phe (RPR[Orn]E([Gly-X1])[Nva]F) | 21 | 33 | 
60006-16A (RPR[Nva][GlyNH2][GltNH2][hLeu]; reading uncertain) [Compound 60006-16A] |  |  | % Inhibition PKB I: 42%; % Inhibition PKB II: 42%
60020-89: Arg-Pro-Arg-Nle-Glu(bAla-5-aminoethylsulfonamide isoquinoline)-Dab-Phe (RPR[Nle]E([βAla-X1])[Dab]F) | 8 | 48 | 
CC[C@H](NC(=O)[C@H](CO)NC(=O)[C@@H](NC(=O)[C@H](CCCNC(=N)N)NC(=O)[C@@H]1CCCN1C(=O)[C@@H](N)CCCNC(=N)N)[C@@H](C)O)C(=O)N[C@H](COC(=O)NCCNS(=O)(=O)c1cccc2cnccc12)Cc1ccccc1 [compound 6013] (H-RPRTS[Abu][X3]-{Ethylenediamine-Isoquinoline5sulfonyl}) |  |  | IC50 [1]: 4 µM
60020-32: Arg-Pro-Arg-Nle-Glu(5-aminoethylsulfonamide isoquinoline)-Nva-Hol (RPR[Nle]E(X1)[Nva][hLeu]) | 12 | 32 | 
60020-85: Arg-Pro-Arg-Abu-Glu(bAla-5-aminoethylsulfonamide isoquinoline)-Ala-Phe (RPR[Abu]E([βAla-X1])AF) | −27 | −2 | 
60020-40: Arg-Pro-Arg-Dap-Glu(Gly-5-aminoethylsulfonamide isoquinoline)-Nva-Hol (RPR[Dap]E([Gly-X1])[Nva][hLeu]) | 36 | 22 | 
RPRMSSF-NH2 (C-terminus assumed) [AR 60003-50, Arg-Pro-Arg-Met-Ser-Ser-Phe] |  |  | IC50 [2]: 2.5 µM

The next lines start with results.

PKB-kinase (spa) Assay 1, % inhibition of kinase activity [%] | PKB-kinase (spa) Assay 2, % inhibition of kinase activity [%] | Compound | further results
46 | 26 | 60020-5: Arg-Pro-Arg-Dap-Glu(5-aminoethylsulfonamide isoquinoline)-Ala-Phe (RPR[Dap]E(X1)AF) | 
57 | 68 | 60020-70: Arg-Pro-Arg-Dap-Glu(bAla-5-aminoethylsulfonamide isoquinoline)-Ala-Hol (RPR[Dap]E([βAla-X1])A[hLeu]) | 
18 | 28 | 60020-18: Arg-Pro-Arg-Abu-Glu(5-aminoethylsulfonamide isoquinoline)-Dab-Hol (RPR[Abu]E(X1)[Dab][hLeu]) | 
40 | 59 | 60020-92: Arg-Pro-Arg-Nle-Glu(bAla-5-aminoethylsulfonamide isoquinoline)-Orn-Hol (RPR[Nle]E([βAla-X1])[Orn][hLeu]) | 
32 | 30 | 60020-65: Arg-Pro-Arg-Dap-Glu(bAla-5-aminoethylsulfonamide isoquinoline)-Dab-Phe (RPR[Dap]E([βAla-X1])[Dab]F) | 
20 | 40 | 60020-55: Arg-Pro-Arg-Abu-Glu(Gly-5-aminoethylsulfonamide isoquinoline)-Nva-Phe (RPR[Abu]E([Gly-X1])[Nva]F) | 
20 | 47 | 60020-56: Arg-Pro-Arg-Abu-Glu(Gly-5-aminoethylsulfonamide isoquinoline)-Nva-Hol (RPR[Abu]E([Gly-X1])[Nva][hLeu]) | 
−17 | 42 | 60020-81: Arg-Pro-Arg-Abu-Glu(bAla-5-aminoethylsulfonamide isoquinoline)-Dab-Phe (RPR[Abu]E([βAla-X1])[Dab]F) | 
34 | 38 | 60020-17: Arg-Pro-Arg-Abu-Glu(5-aminoethylsulfonamide isoquinoline)-Dab-Phe (RPR[Abu]E(X1)[Dab]F) | 
18 | 0 | 60020-8: Arg-Pro-Arg-Dap-Glu(5-aminoethylsulfonamide isoquinoline)-Nva-Hol (RPR[Dap]E(X1)[Nva][hLeu]) | 
0 | 54 | 60020-96: Arg-Pro-Arg-Nle-Glu(bAla-5-aminoethylsulfonamide isoquinoline)-Nva-Hol (RPR[Nle]E([βAla-X1])[Nva][hLeu]) | 
−12 | 58 | 60020-93: Arg-Pro-Arg-Nle-Glu(bAla-5-aminoethylsulfonamide isoquinoline)-Ala-Phe (RPR[Nle]E([βAla-X1])AF) | 
−21 | 60 | 60020-83: Arg-Pro-Arg-Abu-Glu(bAla-5-aminoethylsulfonamide isoquinoline)-Orn-Phe (RPR[Abu]E([βAla-X1])[Orn]F) | 
−5 | −2 | 60020-22: Arg-Pro-Arg-Abu-Glu(5-aminoethylsulfonamide isoquinoline)-Ala-Hol (RPR[Abu]E(X1)A[hLeu]) | 
−50 | 31 | 60020-88: Arg-Pro-Arg-Abu-Glu(bAla-5-aminoethylsulfonamide isoquinoline)-Nva-Hol (RPR[Abu]E([βAla-X1])[Nva][hLeu]) | 
31 | 44 | 60020-15: Arg-Pro-Arg-Orn-Glu(5-aminoethylsulfonamide isoquinoline)-Nva-Phe (RPR[Orn]E(X1)[Nva]F) | 
25 | 26 | 60020-64: Arg-Pro-Arg-Nle-Glu(Gly-5-aminoethylsulfonamide isoquinoline)-Nva-Hol (RPR[Nle]E([Gly-X1])[Nva][hLeu]) | 
